# Key:
# 4H3354-bA = target: T1, 4H3354-bA; assay: two-hybrid library CCNG1;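 further: natural log of median RNA to DNA barcode read ratio; higher means stronger binding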
# T1 chain: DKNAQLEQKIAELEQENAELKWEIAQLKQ
# 4H967-bA = target: T2, 4H967-bA; assay: two-hybrid library CCNG1;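 further: natural log of median RNA to DNA barcode read ratio; higher means stronger binding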
# T2 chain: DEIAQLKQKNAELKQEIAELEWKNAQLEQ
# 4H3606-bA = target: T3, 4H3606-bA; assay: two-hybrid library CCNG1;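 further: natural log of median RNA to DNA barcode read ratio; higher means stronger binding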
# T3 chain: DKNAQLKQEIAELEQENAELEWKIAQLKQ
# 4H454-bA = target: T4, 4H454-bA; assay: two-hybrid library CCNG1;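 further: natural log of median RNA to DNA barcode read ratio; higher means stronger binding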
# T4 chain: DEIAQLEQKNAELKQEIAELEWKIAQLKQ
# 4H3297-bA = target: T5, 4H3297-bA; assay: two-hybrid library CCNG1
# T5 chain: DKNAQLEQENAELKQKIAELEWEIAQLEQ
# 4H4001-bA = target: T6, 4H4001-bA; assay: two-hybrid library CCNG1
# T6 chain: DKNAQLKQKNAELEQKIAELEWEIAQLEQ
# 4H2697-bA = target: T7, 4H2697-bA; assay: two-hybrid library CCNG1
# T7 chain: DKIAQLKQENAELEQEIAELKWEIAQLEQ
# 4H370-bA = target: T8, 4H370-bA; assay: two-hybrid library CCNG1
# T8 chain: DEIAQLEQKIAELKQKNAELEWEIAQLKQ
# 4H717-bA = target: T9, 4H717-bA; assay: two-hybrid library CCNG1
# T9 chain: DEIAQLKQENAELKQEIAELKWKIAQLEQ
# 4H462-bA = target: T10, 4H462-bA; assay: two-hybrid library CCNG1
# T10 chain: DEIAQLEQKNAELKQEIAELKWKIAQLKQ
# 4H918-bA = target: T11, 4H918-bA; assay: two-hybrid library CCNG1
# T11 chain: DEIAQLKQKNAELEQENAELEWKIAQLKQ
# 4H331-bA = target: T12, 4H331-bA; assay: two-hybrid library CCNG1
# T12 chain: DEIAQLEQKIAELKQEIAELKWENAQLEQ
# 4H953-bA = target: T13, 4H953-bA; assay: two-hybrid library CCNG1
# T13 chain: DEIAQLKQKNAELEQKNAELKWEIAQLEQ
# 4H3189-bA = target: T14, 4H3189-bA; assay: two-hybrid library CCNG1
# T14 chain: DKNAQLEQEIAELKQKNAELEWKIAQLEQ
# 4H607-bA = target: T15, 4H607-bA; assay: two-hybrid library CCNG1
# T15 chain: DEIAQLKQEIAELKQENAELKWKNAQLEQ
# 4H883-bA = target: T16, 4H883-bA; assay: two-hybrid library CCNG1
# T16 chain: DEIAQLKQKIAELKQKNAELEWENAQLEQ
# 4H687-bA = target: T17, 4H687-bA; assay: two-hybrid library CCNG1
# T17 chain: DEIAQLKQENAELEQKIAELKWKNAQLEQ
# 4H3782-bA = target: T18, 4H3782-bA; assay: two-hybrid library CCNG1
# T18 chain: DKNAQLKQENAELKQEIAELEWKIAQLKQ
# 4H3855-bA = target: T19, 4H3855-bA; assay: two-hybrid library CCNG1
# T19 chain: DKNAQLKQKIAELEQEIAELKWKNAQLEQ
# 4H3926-bH = target: T20, 4H3926-bH; assay: two-hybrid library CCNG1
# T20 chain: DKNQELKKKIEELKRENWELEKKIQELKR
# 4H797-bA = target: T21, 4H797-bA; assay: two-hybrid library CCNG1
# T21 chain: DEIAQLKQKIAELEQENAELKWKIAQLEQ
# 4H72-bA = target: T22, 4H72-bA; assay: two-hybrid library CCNG1
# T22 chain: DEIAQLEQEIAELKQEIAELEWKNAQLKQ
# 4H3843-bA = target: T23, 4H3843-bA; assay: two-hybrid library CCNG1
# T23 chain: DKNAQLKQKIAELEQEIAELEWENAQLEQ
# 4H2667-bA = target: T24, 4H2667-bA; assay: two-hybrid library CCNG1
# T24 chain: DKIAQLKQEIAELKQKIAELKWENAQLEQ
# 4H3112-bA = target: T25, 4H3112-bA; assay: two-hybrid library CCNG1
# T25 chain: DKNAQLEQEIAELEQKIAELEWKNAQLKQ
# 4H908-bA = target: T26, 4H908-bA; assay: two-hybrid library CCNG1
# T26 chain: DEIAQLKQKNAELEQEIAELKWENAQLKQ
# 4H754-bA = target: T27, 4H754-bA; assay: two-hybrid library CCNG1
# T27 chain: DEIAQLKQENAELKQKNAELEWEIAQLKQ
# 4H3185-bA = target: T28, 4H3185-bA; assay: two-hybrid library CCNG1
# T28 chain: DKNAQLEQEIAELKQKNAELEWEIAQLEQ
# 4H3427-bA = target: T29, 4H3427-bA; assay: two-hybrid library CCNG1
# T29 chain: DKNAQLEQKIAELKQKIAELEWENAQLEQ
# 4H2729-bA = target: T30, 4H2729-bA; assay: two-hybrid library CCNG1
# T30 chain: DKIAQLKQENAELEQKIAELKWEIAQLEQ
# 4H338-bA = target: T31, 4H338-bA; assay: two-hybrid library CCNG1
# T31 chain: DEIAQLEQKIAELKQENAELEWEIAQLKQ
# 4H568-bA = target: T32, 4H568-bA; assay: two-hybrid library CCNG1
# T32 chain: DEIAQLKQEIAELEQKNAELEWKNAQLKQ
# P4A-bS = target: T33, P4A-bS; assay: two-hybrid library CCNG1
# T33 chain: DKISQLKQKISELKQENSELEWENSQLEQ
# P6A-bS = target: T34, P6A-bS; assay: two-hybrid library CCNG1
# T34 chain: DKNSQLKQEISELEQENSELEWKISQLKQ
# P7A-bS = target: T35, P7A-bS; assay: two-hybrid library CCNG1
# T35 chain: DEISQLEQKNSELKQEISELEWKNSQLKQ
# P9A-bS = target: T36, P9A-bS; assay: two-hybrid library CCNG1
# T36 chain: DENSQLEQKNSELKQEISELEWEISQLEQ
# P8A-bS = target: T37, P8A-bS; assay: two-hybrid library CCNG1
# T37 chain: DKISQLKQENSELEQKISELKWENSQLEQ
# P5A-bS = target: T38, P5A-bS; assay: two-hybrid library CCNG1
# T38 chain: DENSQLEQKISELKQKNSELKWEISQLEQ
# 4H4033-AA = target: T39, 4H4033-AA; assay: two-hybrid library CCmax; settings: mean of both orientations
# T39 chain: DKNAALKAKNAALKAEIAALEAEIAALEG
# 4H2513-AA = target: T40, 4H2513-AA; assay: two-hybrid library CCmax; settings: mean of both orientations
# T40 chain: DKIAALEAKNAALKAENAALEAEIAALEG
# 4H3605-AA = target: T41, 4H3605-AA; assay: two-hybrid library CCmax; settings: mean of both orientations
# T41 chain: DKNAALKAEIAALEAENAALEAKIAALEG
# 4H481-AA = target: T42, 4H481-AA; assay: two-hybrid library CCmax; settings: mean of both orientations
# T42 chain: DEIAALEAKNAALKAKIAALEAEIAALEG
# 4H369-AA = target: T43, 4H369-AA; assay: two-hybrid library CCmax; settings: mean of both orientations
# T43 chain: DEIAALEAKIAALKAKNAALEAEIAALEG
# 4H2726-AA = target: T44, 4H2726-AA; assay: two-hybrid library CCmax; settings: mean of both orientations
# T44 chain: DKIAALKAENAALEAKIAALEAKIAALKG
# 4H2935-AA = target: T45, 4H2935-AA; assay: two-hybrid library CCmax; settings: mean of both orientations
# T45 chain: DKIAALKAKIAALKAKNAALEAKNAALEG
# 4H2536-AA = target: T46, 4H2536-AA; assay: two-hybrid library CCmax; settings: mean of both orientations
# T46 chain: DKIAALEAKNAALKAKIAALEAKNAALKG
# 4H3625-AA = target: T47, 4H3625-AA; assay: two-hybrid library CCmax; settings: mean of both orientations
# T47 chain: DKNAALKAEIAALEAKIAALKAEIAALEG
# 4H662-AA = target: T48, 4H662-AA; assay: two-hybrid library CCmax; settings: mean of both orientations
# T48 chain: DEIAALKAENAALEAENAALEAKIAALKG
# 4H2238-AA = target: T49, 4H2238-AA; assay: two-hybrid library CCmax
# T49 chain: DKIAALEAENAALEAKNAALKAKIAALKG
# 4H3664-AA = target: T50, 4H3664-AA; assay: two-hybrid library CCmax; settings: mean of both orientations
# T50 chain: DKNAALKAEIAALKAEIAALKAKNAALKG
# 4H2608-AA = target: T51, 4H2608-AA; assay: two-hybrid library CCmax; settings: mean of both orientations
# T51 chain: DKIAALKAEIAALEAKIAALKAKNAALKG
# 4H2614-AA = target: T52, 4H2614-AA; assay: two-hybrid library CCmax; settings: mean of both orientations
# T52 chain: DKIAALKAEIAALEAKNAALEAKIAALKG
# 4H3922-AA = target: T53, 4H3922-AA; assay: two-hybrid library CCmax; settings: mean of both orientations
# T53 chain: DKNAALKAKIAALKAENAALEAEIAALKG
# 4H327-AA = target: T54, 4H327-AA; assay: two-hybrid library CCmax; settings: mean of both orientations
# T54 chain: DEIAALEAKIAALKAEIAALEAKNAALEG
# 4H55-AA = target: T55, 4H55-AA; assay: two-hybrid library CCmax; settings: mean of both orientations
# T55 chain: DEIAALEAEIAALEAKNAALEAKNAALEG
# P4A-bN = target: T56, P4A-bN; assay: two-hybrid library CCNG1
# T56 chain: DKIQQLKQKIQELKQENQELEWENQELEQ
# P8A-bN = target: T57, P8A-bN; assay: two-hybrid library CCNG1
# T57 chain: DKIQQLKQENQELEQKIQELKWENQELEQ
# P6A-bN = target: T58, P6A-bN; assay: two-hybrid library CCNG1
# T58 chain: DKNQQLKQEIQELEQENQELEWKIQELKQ
# P7A-bN = target: T59, P7A-bN; assay: two-hybrid library CCNG1
# T59 chain: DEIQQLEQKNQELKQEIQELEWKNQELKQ
# P9A-bN = target: T60, P9A-bN; assay: two-hybrid library CCNG1
# T60 chain: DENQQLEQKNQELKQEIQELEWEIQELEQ
# 4H953-bH = target: T61, 4H953-bH; assay: two-hybrid library CCNG1
# T61 chain: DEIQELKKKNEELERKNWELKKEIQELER
# 4H918-bH = target: T62, 4H918-bH; assay: two-hybrid library CCNG1
# T62 chain: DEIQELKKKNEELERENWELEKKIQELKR
# 4H968-bH = target: T63, 4H968-bH; assay: two-hybrid library CCNG1
# T63 chain: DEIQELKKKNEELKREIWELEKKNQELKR
# 4H855-bH = target: T64, 4H855-bH; assay: two-hybrid library CCNG1
# T64 chain: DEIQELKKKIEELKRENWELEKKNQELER
binder,measurement,setting,value
DKIAQLKQEIAELKQKIAELKWENAQLEQ [4H2667-bA],interaction score,4H3354-bA,-0.643
same,interaction score,4H967-bA,-1.08
same,interaction score,4H3606-bA,0.0163
same,interaction score,4H454-bA,1.25
same,interaction score,4H3297-bA,0.0617
same,interaction score,4H4001-bA,1.02
same,interaction score,4H2697-bA,0.478
same,interaction score,4H370-bA,-0.0583
same,interaction score,4H717-bA,-1.61
same,interaction score,4H462-bA,-0.172
same,interaction score,4H918-bA,-1.68
same,interaction score,4H331-bA,0.846
same,interaction score,4H953-bA,-0.966
same,interaction score,4H3189-bA,-0.909
same,interaction score,4H607-bA,-1.24
same,interaction score,4H883-bA,-0.985
same,interaction score,4H687-bA,-1.37
same,interaction score,4H3782-bA,-0.43
same,interaction score,4H3855-bA,-0.565
same,interaction score,4H3926-bH,-1.75
same,interaction score,4H797-bA,-1.09
same,interaction score,4H72-bA,0.976
same,interaction score,4H3843-bA,1.49
same,interaction score,4H2667-bA,0.263
same,interaction score,4H3112-bA,0.96
same,interaction score,4H908-bA,-0.691
same,interaction score,4H754-bA,-1.06
same,interaction score,4H3185-bA,-0.669
same,interaction score,4H3427-bA,0.719
same,interaction score,4H2729-bA,0.719
same,interaction score,4H338-bA,0.164
same,interaction score,4H568-bA,0.688
same,interaction score,P4A-bS,-1.72
DKISQLKQKISELKQENSELEWENSQLEQ [P4A-bS],interaction score,P6A-bS,-1.51
same,interaction score,P7A-bS,-0.905
same,interaction score,P9A-bS,-2
same,interaction score,P8A-bS,-0.866
same,interaction score,P4A-bS,-1.08
same,interaction score,P5A-bS,-0.436
DKIAALEAENAALEAKNAALKAKIAALKG [4H2238-AA],interaction score,4H4033-AA,1.31
same,interaction score,4H2513-AA,2.15
same,interaction score,4H3605-AA,-0.657
same,interaction score,4H481-AA,1.84
same,interaction score,4H369-AA,2.28
same,interaction score,4H2726-AA,-0.445
same,interaction score,4H2935-AA,-1.18
same,interaction score,4H2536-AA,-1.01
same,interaction score,4H3625-AA,-1.18
same,interaction score,4H662-AA,1.18
same,interaction score,4H2238-AA,-0.902
same,interaction score,4H3664-AA,-1.15
same,interaction score,4H2608-AA,-1.6
same,interaction score,4H2614-AA,-1.25
same,interaction score,4H3922-AA,1.59
same,interaction score,4H327-AA,-0.966
same,interaction score,4H55-AA,-1.77
DKIQQLKQKIQELKQENQELEWENQELEQ [P4A-bN],interaction score,P4A-bN,-1.26
same,interaction score,P8A-bN,-0.841
same,interaction score,P6A-bN,-1.54
same,interaction score,P7A-bN,-1.45
same,interaction score,P9A-bN,-0.681
DEIQELKKKIEELKRENWELEKKNQELER [4H855-bH],interaction score,4H953-bH,-1.14
same,interaction score,4H918-bH,-0.637
same,interaction score,P4A-bN,-0.185
same,interaction score,4H968-bH,0.133
same,interaction score,4H855-bH,-0.389
